Results on 17 sequences are retold here after a protein production outcome set (Wang et al. 2014).
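Also: failed if final PepcDB status was selected cloned or expressed and not failed if soluble or beyond.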

The data set in a line: label from the status in PepcDB records.
Regarding “MIDLILAIIILVSALLGLLRGFVSIIISTSSWLLASWATFEFGNTASHWLASHGIPSTTEILCGYALVFIGTLMTVGAVGMLMHAGINAIRLNNIDRIFGFALGTFRGGFIACLLLLMIGYTPLAHEPVWRNSRLVPLLQPGVSWMRAKLPQRSSPLTPQRLPLTRPMINRMGSINISVSDDNQLISRVFPPLSSNEHDKSHYVPVQPIIYKPTTTY”, the protein production result is “failed”.
As for “MIDPLASPGSAPLIVIAGPTASGKSALALRVARRFNGVVINADSMQVYRDLRILSARPSVEDEAAAPHALYGVLDGAEVCSVGRWLALADGAVAAARAAGRLPILCGGTGLYLKAALEGLASVPEVAPEVRAEARELLAALGPAALHAKLAELDRAMAERLRPSDAQRIARAYEVVRGTGRSLMDWWSDPVATPALPGRPLLLVIDPPRAAQRAACDARLLAMVAAGALDELALLLARRLDPALPVMRAVGVPELARTLRGEVGLAEAVERAQGATRRYAKRQGTWIRTQLRPDRVLSESLVTQLSESQLTDIDNFLYAFLLTGAS”, the protein production result is reported as “failed”.
With “MIDRNIVNLRLFRIYSKRYLKFDFVAAIVVFLVAIPLCLGIALASGAPLFSGILSGIIGGIVVGIFSGSQVSVSGPAAGMAAVVLAAISQLGDFNTFLLALTIAGLLQMIIGALRAGFVADYVPSNVVQGLLCSIGILLIIKQLPLAFTLSSDFDELKTHLLETTEGFTVSPLLALSQHINEGALIITTLSLAILIYFDITKNKILKEIPAPILVVLAGILLNELFIWTNSSLAQNSPQLVNIPDTNGFFQFFSHLEYPDWSAWTNPKVYLYALVICIVASLETLLNLKASERLDKKRRHSPTNQELVAQGLGNITSGLVGGIPVTSVIVRTSINIHAGSKTKFSAVLHGFFILFAVMLIPGALNKIPLSSLAAILIYTGYKLNKPAIYINIFSQGSDRFIPFIVTVISIIAFNLLAGILIGLAISLFYILKSNSQARIDIIKEIYPNGSTYRLMLPQQMTFLNKAALVAELDTLPRRSQLIIDARHSQYIDKEILDLFNELKEELAGSKQISVNFTGFQEHYKIHNYIDFITVTTYDVQTNLTPAQVLNILLEGNQRFLSDNRIHRSNQIDIKYTAKTQHPIAVVLACIDSRVPVETIFDMSFGDLFCVRIAGNVINDDILASIEYACNVVGAKLIMVLGHTRCGAIQSACDGIEKGHITQLLSKIKPAVNAEKETTTERNGKNQTFVNHVTELNVANTLQNIYKKSDILRTMIDSNEIGMVGAIYDVSSGKVSCKTYTEELSTLDGDENKLLAQKFETILLEAKAS”, the protein production entry is reported as “failed”.
“MIDSLLDEMTLEEQVSVLSGADFWTTVPVERLGIPKIKVTDGPNGARGGGSLVGGVKATCYPVAIALGATWNPALIEAMGVSLAGQVKSKGASVLLAPTVNIHRSGLNGRNFECYSEDPMLTAALAVAYIKGVQSQGVAATIKHFAGNESEIERQTMSSDIDERALREIYLLPFEQAVKKAGVMAVMSSYNRLNGTYTSEHNWLLTDVLREQWGFDGIVMSDWFGSHSTSESVNAGLDLEMPGPTRDRGEKLVQAVRDGTVRPETVREAAGRILTLLERVGAFSSAPDLSEHAEDLPADRALIRKIGAEGAVLLKNDNILPLEKASLKRVAVIGPNAAVARVMGGGSAQINAHYTISPLEGIRAALQGTADVQHSVACGNSRLVKLFSQPVTVEYFKGVNCQGTPVAAEAVQTGEFFWFELPSPDLSLTDFSVRFTGTFTPQEDGPHLLGMTNSGLAKLYVDGELVVDGYTDWKRGENFFGTANDEIRHSVEMKAGRSYAIKVEYLSPPPEEYGIHITAIRFGIERILGEDAMVEAVECAKGADVALLFVGREGQWDTEGLDLPDMRLPGRQEELIERVSAVNPNCIVVLQTGGPVEMPWLEKVKAVLQVWYPGQELGNAVADMLFGDQEPGGRLPQTFPKQLSDNSAITNDPSIYPGMDGHVRYEEGVFVGYRHHDSRTIEPLFPFGFGLNYTSFEWDEPKASASEMTASGVTVSVRVSNTGKRAGSDVVQLYVEAPVSGVERPLKELRAFAKIALEPGESGEVTLEINPRDLSYYDVDAAAFRAPAGDYRLLIGAHAQDIRSAITIVNPQEWLGAVGDRTI”: the protein production entry was “failed”.
Regarding “MIDTHIHSDTRGLEDLELMAMCLDGVITLAHDPFEMKNIKVWEAHVEKLLINELERAKKVGLNLFICVGMHPRAIPPEIDEALDKIKSYINYNSRVVGIGEIGLEKATKEEKEVFIKQLLLAEELNMPAVVHTPRRNKEEVTKIILDEISTLNLKNRDIVIEHCNKETTKWVLDEEFYVGLTIQPGKLTPLEAVEIVKEYKDFADKILLNSDCSSNASDVLAVPRTVLKMKINGIEKDVIYKVAHKNAVNLFGLDI”, the protein production result was “failed”.
For “MIDTSIFQDKTAVYYTLGCKLNFSETSTIGKVLREAGVRTVRKGEKADICVVNTCSVTEVADKKCRQAIHRLVKQHPGAFVVVTGCYAQLKPDAVAKIEGVDVVLGAEQKKDLLQYLGDLRKHESGEAHTSALKDIRSFAPSCSRGDRTRFFLKVQDGCDYYCSYCTIPFARGRSRNGSIASLVEQARQAAAEGGKEIVLTGVNIGDFGKSTGETFFDLVKALDDVECIERYRISSIEPNLLTDEIIEFVSRSKRFMPHFHIPLQSGSDEVLKLMRRRYDTALFASKVKRIKEVMPDAFIGVDVIVGTRGETEEYFEQAYRFIQSLDVTQLHVFSYSERPGTQALKIEHVVSSEEKHRRSRLLLDLSDEKTRAFYARHIGQTMPVLLERSKPGTPMHGFTPNYIRVEVPHDDALDNQVIPVRMGDFNEEGTALSGAFGDK”, the protein production result is recorded as “failed”.
Regarding “MIEEERNNYSVFHGLWTLASRELKKWYKAPVILLLSLIQPIFWIGIFGKAMNLGSIFTETTFNIPGLTIPKQVLDQIGLEILKQTFGTTDYFSFLAAGMLSFIVLFTSMQSGMSIVWDRRLGVLDRILTTPVPRGNIIIGKVLSAVIRSLVQATIVLVVAVLLGMTFAPEINPLDFLGVYAALFLMSFGLSSLFLMLALRATSWESQMAIMNLLNLPLLFTSNAFYPVKSMPYWLKPVAYINPLTYSNGVARGMLLGISTNLAIDFLYLGLFAIILSTIGIVLSWKYLSK”, the protein production entry is on record as “failed”.
Regarding “MIEESVMLRQHNLRLRKYDYVLGRLFVALPIGGLVVAVLLLFADWRVGRFELAMCLAMYLFTMMGIEVGFHRCFAHRAFKAGTGLQWVLAVAGSMGGHGPLIWWVTTHRRHHRFVDTDQDPHTPNKDLRGPWRNFKSFLYGYVGWTMDTDVKLQEGWQRYGVDLYKNSILFKVHARFALIALLGLLLPTVAGALFHRTAEGALLGLLWGGLVPICLTQHLFWMINAFGHRIGAKPFSGRIVGDSRNCWWLALPTFGQGWHNNHHADPGCATTRKTWWQLDPGAWLIRLFERLGWASAVKWK”, the protein production result is listed as “failed”.
Regarding “MIEFTALDDLSLLRESVSLECKLAQGRDGKGALPDDFWPTYSAMANTDGGIVILGVRERKGQFEVAGIENPDKLRTELFNHLNNRQKVSVNLLRDEDVRAWPVEGKTLLVVEIPRARRQQRPVYLRGNPLGGHTYRRLHEGDRPLPDE”, the protein production entry is on record as “failed”.
For “MIEGIIEEIRTNGSFLITTHENPDGDAVGSSLALAGYLRRLGKDVTIHFCDPVPDLYAFLPLAEEVTRTVPDRDYDICFVLDVGEFRRAGKQIAECKRIKKFINIDHHLTSDNFGFINYIDPKAAATGILVHRIITGAGDVVGYETALCLYTAIITDTGSFRYSNANPEAFAIAGELVSTGINTWSIAEKLYESQPRERLELLALALSTLTISPRGEYASITVTLDMYNKTGASAELTDGFVNYPRSIRGVEVSVFFREINPGLFKVGFRSKGKIDVSRIAAAFGGGGHHNAAGATMNGSLEGIKATLFSHLESTLLEHHHHHH”, the protein production entry is recorded as “not failed”.
For the sequence “MIEGKTLVVNPFIGGSAKNITDEQYISILKKIKEKMPDLNIIITSYTTDEERTEKLCKDIGKDKIFAFSNGASILNTASIIDRADVYFGASTGPTHIAGALGKKIVAIYPHKKTQSPTRWGVLGNSNVRYIIPDENNPNEDYKLEHHHHHH”, the protein production result was “failed”.
To “MIEHIIDIIIVLLAKLGYAGTFFGMLFESACIPIPSEIVLPFGGYLSSSSAPQGHTLNLVLVIISATLGGTVGSILAYTIGAKGGRILVYKYASKLHLSKEKIEKSEAVFDKYGDKIIFLSRLLPIIRTFISLPAGIAKMDFTKFTIYTLVGSAIWSTLLVYAGFVMGKNWESIRSYFHIADYLVAGAIILFIVYRIIVYIKKKTKK” belongs “failed”.
On to “MIEKIIDLSVKNKLLTTLVTLLIFLASLWAIKSVRLDALPDLSPAQVVVQITYPNQSPKIVQEQVTYPLVSTFMSIANIDTVRGISSYESGLIYIIFKDGVNLYWARDRVLEQLNRVSNLPKDAKVEIGSDSTSIGWAYQYALSSDSKNLSDLKVLQDFYYRYALLGVDGVSEVASVGGFVKDYEVTLQNDSLIRYNLSLEQVANAIKNSNNDTGGGVILENGFEKIIRSHGYIQSLKDLEEIVVKKEGAIPLKIKDIASVRLTPKPRRGAANLNGDKEVVGGIVMVRYHADTYKVLKAIKEKIATLQASNPDVKITSVYDRSELIEKGIDNLIHTLIEESVIVLVIIAIFLLHFRSALVVIITLPLSVCISFLLMRYFNIEASIMSLGGIAIAIGAMVDAAIVMVENAHKHLQHIDVKDNAQRVNGIIEGVKHVGGAIFFALMIIVVSFLPIFALTGQEEKLFAPLAYTKTFAMLVGALLSITMVPILMVWLIKGRILEESKNPINAFFMKIYGVSLNVVLKFRYAFLIASVLGLGGLYVAYKKLNWEFIPQINEGVVMYMPVTINGVSIDTALEYLKKSNSAIKRLDFVKQVFGKVGRANTSTDAAGLSMIETYIELKPQNEWKEKLSYKEVRDKLEKTLQLKGLTNSWTYPIRGRTDMLLTGIRTPLGIKLYGNDTDKLQELAILMEQQLKTLKESLSVFAERSNNGYYITLDLNDENLARYGINKKAVLDAIKFALGGATLTTMIKGVENYPISLRLEDTERNTIEKLKNLYIKTAYNYMPLRELARIYYDNSPAVLKSEKGLNVNFIYIVPQNGISSDAYRQLAQKALEKIQLPNGYYYEFSGESQYLEEAFKTLQYIVPVSVFIIFILIVFALKNLTNSLLCFFTLPFAFLGGLIFMNLMGFNMSVAALVGFLALLGVASETAIVMIIYLEDAFQKFIKTPLKEQNSTTLKEAIMHGAVLRVRPKLMTFFSILASLIPIMYSHGTGSEIMKSIAAPMLGGMISSVVLTLFIIPTAYFVIKNAGIKSNQT”, for which the protein production result is “failed”.
Take “MIEKKKNRSKLKREAILAAAKKAYQDDGVQNTSMDKLASLAQVSKRTVYNHFSSKEALVMELLSDLWQNSMADIDIQFSENVSIQDQLERLLLAELNVIGAQSYLDLAKVAFGHFFYKPDELQLQVEKMAEQETALSRWLQLMMDTKKLTIEDKHKAGVQLHSLLKGSAFWPQLVGMRAVLSSEEKEQLVTETADMFLSRYLKR”: the protein production result is “not failed”.
As to “MIELEVVIRTVASFGLLLIAERILGKQTISQMTIFDFIAAITLGAIAAGLAYNTSIKPHNMAISFSIFVLTIFLISFLSIKNRKLRKFFAGDPTVLIQNGKILESNMRKMRYTLDYLNQQLREKEIFNIEEVLFAILETNGQLTVLRKPQFRHVTKQDLMIAVNQEQRLPIELIMDGEIIENNLKQNRLTESWLLEELRKRDIKVKETVYAVLLGNGDIYVDQYKDHISVPMDKE”, the protein production entry is listed as “failed”.
Take “MIELRNELPGGEVHAAWHLRYAGHDFFVKCDEREMLRGFTAEADQLELLSRSKTVVVPKVWAVGSDRDYSFLVMDYLSPRPLDAHNAFILGQQLARLHQWSDQPQFGLDFDNALSTTPQPNTWQRRWSTFFAEQRIGWQLELAAEKGITFGNIDAIVEHVQQRLASHQPQPSLLHGDLWSANCALGPDGPYIFDPACYWGDRECDLAMLPLHTDQPPQIYDGYQSVSPLPLDFLDRQPIYQLYTLLNRARLFGGQHLATAQKAMDRLLAVLEHHHHHH”: the protein production result is listed as “failed”.
Turning to “MIEQPSPKVYDELLSIWEEAVRSTHHFLTEADIQFYKPLIRHEYLAAVRLYIIREDSGTIAAFMGLSNDCIEMLFVRPNAHGHGYGSRLVEFAIRKKRIYKVDVNEQNAAALGFYLHMGFETTGRDALDATGKPFPILHLQIPPIRLRK”, the protein production entry is listed as “failed”.
